Measured values taken from PMC5074368.

What was measured:
[1] = biological target: TOM1 in the prey vector pVP16 (UniProt O60784); assay: mammalian two-hybrid assay; conditions: n = 3; parent: est. 100; read off a plot
[2] = biological target: Dab2 in the prey vector pVP16 (UniProt P98082); assay: mammalian two-hybrid assay; conditions: n = 5; parent: est. 100; read off a plot
[3] = biological target: F-actin (cellular actin filaments of RPE cells), P60709; assay: cell fractionation into supernatant and F-actin-enriched pellet, quantitative immunoblotting; conditions: chain shown with the change, n = 3, parent: est. 1.3, read off a plot

| Molecule | percent of parent (% wildtype control) [1] | percent of parent (% wildtype control) [2] | other: pellet:supernatant (P:S) ratio [3] |
| --- | --- | --- | --- |
| Myosin VI globular tail (amino acids 1036–1294), wild type, in the bait vector pM R1255A | 99 | 60 |  |
| Myosin VI globular tail (amino acids 1036–1294), wild type, in the bait vector pM E1251A | 73 | 66 |  |
| Myosin VI globular tail (amino acids 1036–1294), wild type, in the bait vector pM E1254A | 87 | 88 |  |
| Myosin VI globular tail (amino acids 1036–1294), wild type, in the bait vector pM I1252A | 110 | 260 |  |
| GFP-tagged full-length myosin VI-NI, wild type, Q9UM54-1 W1253A (protein) MEDGKPVWAPHPTDGFQMGNIVDIGPDSLTIEPLNQKGKTFLALINQVFPAEEDSKKDVEDNCSLMYLNEATLLHNIKVRYSKDRIYTYVANILIAVNPYFDIPKIYSSEAIKSYQGKSLGTRPPHVFAIADKAFRDMKVLKMSQSIIVSGESGAGKTENTKFVLRYLTESYGTGQDIDDRIVEANPLLEAFGNAKTVRNNNSSRFGKFVEIHFNEKSSVVGGFVSHYLLEKSRICVQGKEERNYHIFYRLCAGASEDIREKLHLSSPDNFRYLNRGCTRYFANKETDKQILQNRKSPEYLKAGSMKDPLLDDHGDFIRMCTAMKKIGLDDEEKLDLFRVVAGVLHLGNIDFEEAGSTSGGCNLKNKSAQSLEYCAELLGLDQDDLRVSLTTRVMLTTAGGTKGTVIKVPLKVEQANNARDALAKTVYSHLFDHVVNRVNQCFPFETSSYFIGVLDIAGFEYFEHNSFEQFCINYCNEKLQQFFNERILKEEQELYQKEGLGVNEVHYVDNQDCIDLIEAKLVGILDILDEENRLPQPSDQHFTSAVHQKHKDHFRLTIPRKSKLAVHRNIRDDEGFIIRHFAGAVCYETTQFVEKNNDALHMSLESLICESRDKFIRELFESSTNNNKDTKQKAGKLSFISVGNKFKTQLNLLLDKLRSTGASFIRCIKPNLKMTSHHFEGAQILSQLQCSGMVSVLDLMQGGYPSRASFHELYNMYKKYMPDKLARLDPRLFCKALFKALGLNENDYKFGLTKVFFRPGKFAEFDQIMKSDPDHLAELVKRVNHWLTCSRWKKVQWCSLSVIKLKNKIKYRAEACIKMQKTIRMWLCKRRHKPRIDGLVKVGTLKKRLDKFNEVVSVLKDGKPEMNKQIKNLEISIDTLMAKIKSTMMTQEQIQKEYDALVKSSEELLSALQKKKQQEEEAERLRRIQEEMEKERKRREEDEKRRRKEEEERRMKLEMEAKRKQEEEERKKREDDEKRIQAEVEAQLARQKEEESQQQAVLEQERRDRELALRIAQSEAELISDEAQADLALRRNDGTRPKMTPEQMAKEMSEFLSRGPAVLATKAAAGTKKYDLSKWKYAELRDTINTSCDIELLAACREEFHRRLKVYHAWKSKNKKRNTETEQRAPKSVTDYDFAPFLNNSPQQNPAAQIPARQREIEMNRQQRFFRIPFIRPADQYKDPQSKKKGWWYAHFDGPWIARQMELHPDKPPILLVAGKDDMEMCELNLEETGLTRKRGAEILPRQFEEIAERCGGIQYLQNAIESRQARPTYATAMLQSLLK |  |  | 2.2 |
| GFP-tagged full-length myosin VI-NI, wild type, Q9UM54-1 E1254A (protein) MEDGKPVWAPHPTDGFQMGNIVDIGPDSLTIEPLNQKGKTFLALINQVFPAEEDSKKDVEDNCSLMYLNEATLLHNIKVRYSKDRIYTYVANILIAVNPYFDIPKIYSSEAIKSYQGKSLGTRPPHVFAIADKAFRDMKVLKMSQSIIVSGESGAGKTENTKFVLRYLTESYGTGQDIDDRIVEANPLLEAFGNAKTVRNNNSSRFGKFVEIHFNEKSSVVGGFVSHYLLEKSRICVQGKEERNYHIFYRLCAGASEDIREKLHLSSPDNFRYLNRGCTRYFANKETDKQILQNRKSPEYLKAGSMKDPLLDDHGDFIRMCTAMKKIGLDDEEKLDLFRVVAGVLHLGNIDFEEAGSTSGGCNLKNKSAQSLEYCAELLGLDQDDLRVSLTTRVMLTTAGGTKGTVIKVPLKVEQANNARDALAKTVYSHLFDHVVNRVNQCFPFETSSYFIGVLDIAGFEYFEHNSFEQFCINYCNEKLQQFFNERILKEEQELYQKEGLGVNEVHYVDNQDCIDLIEAKLVGILDILDEENRLPQPSDQHFTSAVHQKHKDHFRLTIPRKSKLAVHRNIRDDEGFIIRHFAGAVCYETTQFVEKNNDALHMSLESLICESRDKFIRELFESSTNNNKDTKQKAGKLSFISVGNKFKTQLNLLLDKLRSTGASFIRCIKPNLKMTSHHFEGAQILSQLQCSGMVSVLDLMQGGYPSRASFHELYNMYKKYMPDKLARLDPRLFCKALFKALGLNENDYKFGLTKVFFRPGKFAEFDQIMKSDPDHLAELVKRVNHWLTCSRWKKVQWCSLSVIKLKNKIKYRAEACIKMQKTIRMWLCKRRHKPRIDGLVKVGTLKKRLDKFNEVVSVLKDGKPEMNKQIKNLEISIDTLMAKIKSTMMTQEQIQKEYDALVKSSEELLSALQKKKQQEEEAERLRRIQEEMEKERKRREEDEKRRRKEEEERRMKLEMEAKRKQEEEERKKREDDEKRIQAEVEAQLARQKEEESQQQAVLEQERRDRELALRIAQSEAELISDEAQADLALRRNDGTRPKMTPEQMAKEMSEFLSRGPAVLATKAAAGTKKYDLSKWKYAELRDTINTSCDIELLAACREEFHRRLKVYHAWKSKNKKRNTETEQRAPKSVTDYDFAPFLNNSPQQNPAAQIPARQREIEMNRQQRFFRIPFIRPADQYKDPQSKKKGWWYAHFDGPWIARQMELHPDKPPILLVAGKDDMEMCELNLEETGLTRKRGAEILPRQFEEIWARCGGIQYLQNAIESRQARPTYATAMLQSLLK |  |  | 0.97 |
| GFP-tagged full-length myosin VI-NI, wild type, Q9UM54-1 I1252A (protein) MEDGKPVWAPHPTDGFQMGNIVDIGPDSLTIEPLNQKGKTFLALINQVFPAEEDSKKDVEDNCSLMYLNEATLLHNIKVRYSKDRIYTYVANILIAVNPYFDIPKIYSSEAIKSYQGKSLGTRPPHVFAIADKAFRDMKVLKMSQSIIVSGESGAGKTENTKFVLRYLTESYGTGQDIDDRIVEANPLLEAFGNAKTVRNNNSSRFGKFVEIHFNEKSSVVGGFVSHYLLEKSRICVQGKEERNYHIFYRLCAGASEDIREKLHLSSPDNFRYLNRGCTRYFANKETDKQILQNRKSPEYLKAGSMKDPLLDDHGDFIRMCTAMKKIGLDDEEKLDLFRVVAGVLHLGNIDFEEAGSTSGGCNLKNKSAQSLEYCAELLGLDQDDLRVSLTTRVMLTTAGGTKGTVIKVPLKVEQANNARDALAKTVYSHLFDHVVNRVNQCFPFETSSYFIGVLDIAGFEYFEHNSFEQFCINYCNEKLQQFFNERILKEEQELYQKEGLGVNEVHYVDNQDCIDLIEAKLVGILDILDEENRLPQPSDQHFTSAVHQKHKDHFRLTIPRKSKLAVHRNIRDDEGFIIRHFAGAVCYETTQFVEKNNDALHMSLESLICESRDKFIRELFESSTNNNKDTKQKAGKLSFISVGNKFKTQLNLLLDKLRSTGASFIRCIKPNLKMTSHHFEGAQILSQLQCSGMVSVLDLMQGGYPSRASFHELYNMYKKYMPDKLARLDPRLFCKALFKALGLNENDYKFGLTKVFFRPGKFAEFDQIMKSDPDHLAELVKRVNHWLTCSRWKKVQWCSLSVIKLKNKIKYRAEACIKMQKTIRMWLCKRRHKPRIDGLVKVGTLKKRLDKFNEVVSVLKDGKPEMNKQIKNLEISIDTLMAKIKSTMMTQEQIQKEYDALVKSSEELLSALQKKKQQEEEAERLRRIQEEMEKERKRREEDEKRRRKEEEERRMKLEMEAKRKQEEEERKKREDDEKRIQAEVEAQLARQKEEESQQQAVLEQERRDRELALRIAQSEAELISDEAQADLALRRNDGTRPKMTPEQMAKEMSEFLSRGPAVLATKAAAGTKKYDLSKWKYAELRDTINTSCDIELLAACREEFHRRLKVYHAWKSKNKKRNTETEQRAPKSVTDYDFAPFLNNSPQQNPAAQIPARQREIEMNRQQRFFRIPFIRPADQYKDPQSKKKGWWYAHFDGPWIARQMELHPDKPPILLVAGKDDMEMCELNLEETGLTRKRGAEILPRQFEEAWERCGGIQYLQNAIESRQARPTYATAMLQSLLK |  |  | 1 |
| GFP-tagged full-length myosin VI-NI, wild type, Q9UM54-1 R1255A (protein) MEDGKPVWAPHPTDGFQMGNIVDIGPDSLTIEPLNQKGKTFLALINQVFPAEEDSKKDVEDNCSLMYLNEATLLHNIKVRYSKDRIYTYVANILIAVNPYFDIPKIYSSEAIKSYQGKSLGTRPPHVFAIADKAFRDMKVLKMSQSIIVSGESGAGKTENTKFVLRYLTESYGTGQDIDDRIVEANPLLEAFGNAKTVRNNNSSRFGKFVEIHFNEKSSVVGGFVSHYLLEKSRICVQGKEERNYHIFYRLCAGASEDIREKLHLSSPDNFRYLNRGCTRYFANKETDKQILQNRKSPEYLKAGSMKDPLLDDHGDFIRMCTAMKKIGLDDEEKLDLFRVVAGVLHLGNIDFEEAGSTSGGCNLKNKSAQSLEYCAELLGLDQDDLRVSLTTRVMLTTAGGTKGTVIKVPLKVEQANNARDALAKTVYSHLFDHVVNRVNQCFPFETSSYFIGVLDIAGFEYFEHNSFEQFCINYCNEKLQQFFNERILKEEQELYQKEGLGVNEVHYVDNQDCIDLIEAKLVGILDILDEENRLPQPSDQHFTSAVHQKHKDHFRLTIPRKSKLAVHRNIRDDEGFIIRHFAGAVCYETTQFVEKNNDALHMSLESLICESRDKFIRELFESSTNNNKDTKQKAGKLSFISVGNKFKTQLNLLLDKLRSTGASFIRCIKPNLKMTSHHFEGAQILSQLQCSGMVSVLDLMQGGYPSRASFHELYNMYKKYMPDKLARLDPRLFCKALFKALGLNENDYKFGLTKVFFRPGKFAEFDQIMKSDPDHLAELVKRVNHWLTCSRWKKVQWCSLSVIKLKNKIKYRAEACIKMQKTIRMWLCKRRHKPRIDGLVKVGTLKKRLDKFNEVVSVLKDGKPEMNKQIKNLEISIDTLMAKIKSTMMTQEQIQKEYDALVKSSEELLSALQKKKQQEEEAERLRRIQEEMEKERKRREEDEKRRRKEEEERRMKLEMEAKRKQEEEERKKREDDEKRIQAEVEAQLARQKEEESQQQAVLEQERRDRELALRIAQSEAELISDEAQADLALRRNDGTRPKMTPEQMAKEMSEFLSRGPAVLATKAAAGTKKYDLSKWKYAELRDTINTSCDIELLAACREEFHRRLKVYHAWKSKNKKRNTETEQRAPKSVTDYDFAPFLNNSPQQNPAAQIPARQREIEMNRQQRFFRIPFIRPADQYKDPQSKKKGWWYAHFDGPWIARQMELHPDKPPILLVAGKDDMEMCELNLEETGLTRKRGAEILPRQFEEIWEACGGIQYLQNAIESRQARPTYATAMLQSLLK |  |  | 1.2 |
